pKd: −log10 of the molar value.
Biological target: recombinant human TNF-alpha (Life Technologies) (human) (UniProt P01375)
Test: SPR (Biacore), Etanercept amine-coupled to chip, TNF-alpha as analyte

Chain of recombinant human TNF-alpha (Life Technologies) (human) (P01375 77-233 limits assumed): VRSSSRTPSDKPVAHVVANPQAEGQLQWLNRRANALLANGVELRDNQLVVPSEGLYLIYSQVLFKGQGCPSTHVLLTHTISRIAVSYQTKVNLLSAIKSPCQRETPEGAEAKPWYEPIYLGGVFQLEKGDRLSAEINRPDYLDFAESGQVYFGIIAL

pKd: 9.50
Substance: Etanercept (soluble TNF receptor, product name Enbrel, Takeda Pharmaceutical Company) (Fc fusion)

Reference: patent publication US20180057553A1, “CONJUGATE AND USE THEREOF” (The University of Tokyo, priority 2015, published 2018)
